Results as given in patent US20200270588A1, “GLUCOSYL TRANSFERASE POLYPEPTIDES AND METHODS OF USE” (Syngenta Participations AG, priority 2017, published 2020).

How the values were obtained:
Test in all cases: UDP-Glo glucosyl transferase assay, purified enzyme
Type in all cases: biochemical, Zea mays
[1] = tested on: CN1CC(O)N(c2cc(C(F)(F)F)ccn2)C1=O; settings: other: DMSO reagent blank as control, pH 7.5
Procedure: (§1) Glucosyl transferase activity is assayed via measurement of acceptor substrate-dependent production of UDP from ultrapure UDP-glucose using the Promega UDP-Glo™ method and according to the manufacturer's instructions. Assays are run in 96 well microtiter plates.
(§2) Enzyme, typically at a stock concentration of ˜2 mg/ml is diluted to an appropriate concentration in 50 mM K^+ Hepes buffer at pH7.5 containing 0.5 mg/mL bovine serum albumin (BSA) and 5 ul aliquots of this diluted enzyme added to each well of a Perkin Elmer white ½ area 96 well plate. […] Assays are run for an appropriate time (usually 10 to 60 min) so that the amount of UDP formed lies within the most nearly linear part of the UDP standard curve and are stopped with the addition and mixing of 25 ul UDP-Glo™ detection reagent (prepared as described below). Plates are then incubated at room temperature for 60 minutes and then read in a luminescence plate reader (Perkin Elmer Envision 2130 Multilabel Reader). A UDP standard curve is run alongside each set of assays and reagent blank control assays run with DMSO in place of test herbicide. Typically, 300 pmol of UDP corresponds to a Relative Luminescence Unit (RLU) reading of about 1.5E7 and the response curve between 0 and 600 pmol is fitted to a polynomial function (see for example FIG. 2).
(§3) The UDP-Glo™ reagents are made up and used according to the manufacturer's instructions. Thus, Nucleotide Detection Buffer and ATP are combined to make nucleotide detection reagent (NDR) dispensed into aliquots and frozen to be freshly thawed before use.
(§4) Km and kcat values in respect of UDP-glucose are derived by carrying out experiments to measure initial rates over a suitable range of concentrations of UDP glucose out at a fixed near saturating concentration of acceptor substrate. Best fit values of kcat, Km and kcat/Km are obtained by direct fitting of the data to the Michaelis-Menten equation using Graphpad Prism™ software.
(§5) Variants of C-terminally his tagged SEQ ID No:1 (w/t bx9 from Zea mays), exemplified as SEQ ID 16-30, were cloned, purified and assayed as described in Example 1. FIG. 4 depicts the data from some experiments to determine the kinetic parameters of some of these variants in respect of herbicide VI and table 12 summarizes the estimates of kinetic parameters obtained from further such experiments in respect of a range of herbicides.

[2] = tested on: CON1C(=O)N(c2cc(C(F)(F)F)ccn2)C(O)[C@@H]1C; settings: other: DMSO reagent blank as control, pH 7.5
Procedure: as §1, §2, §3, §4, §5

[3] = tested on: CN1CC(O)N(c2cc(C(F)(F)F)c(Cl)cn2)C1=O; settings: other: control = inactive H24A mutant of bx9 (asterisk), pH 7.5
[4] = tested on: CON1C(=O)N(c2cc(C(F)(F)F)c(Cl)cn2)C(O)C1C; settings: other: control = inactive H24A mutant of bx9 (asterisk), pH 7.5
[5] = tested on: CN1CC(O)N(c2cc(C(F)(F)F)ccn2)C1=O; settings: other: DMSO reagent blank as control, pH 7.5; remark: listed apart in the source
[6] = tested on: Cc1cnc(N2C(=O)N(C)CC2O)cc1C(F)(F)F; settings: other: control = inactive H24A mutant of bx9 (asterisk), pH 7.5
[7] = tested on: CON1C(=O)N(c2cc(C(F)(F)F)ccn2)C(O)[C@@H]1C; settings: other: DMSO reagent blank as control, pH 7.5; remark: listed apart in the source

“SEQ ID 24, mutant of Zea mays bx9 glucosyl transferase (Zea mays; A334K/L194C/M279F/S117V)” showed a Km [1] of 0.0455 mM, a kcat [1] of 2.61 s⁻¹ and a kcat/Km [1] of 57500 M⁻¹ s⁻¹.

Work on “SEQ ID NO 16, zmBX9 S117V, M279F, A334R mutant (Zea mays; A334R/M279F/S117V)” yielded a Km [2] of 2.8 µM, a kcat [2] of 2.45 s⁻¹ and a kcat/Km [2] of 880000 M⁻¹ s⁻¹.

In the case of “SEQ ID NO 17, zmBX9 S117V, M279F, A334K mutant (Zea mays; A334K/M279F/S117V)”, the Km [3] is reported as 10.5300 mM, the kcat [3] is reported as 2.04 s⁻¹ and the kcat/Km [3] is reported as 190 M⁻¹ s⁻¹. It also gave a Km [4] of 0.1900 mM, a kcat [4] of 2.08 s⁻¹ and a kcat/Km [4] of 11200 M⁻¹ s⁻¹. The Km [5] was 0.1097 mM, the kcat [5] was 0.852 s⁻¹ and the kcat/Km [5] was 7800 M⁻¹ s⁻¹. It also gave a Km [6] of 0.8000 mM, a kcat [6] of 0.38 s⁻¹ and a kcat/Km [6] of 480 M⁻¹ s⁻¹. For the same substance, the Km [7] was 2.2 µM, the kcat [7] was 2.08 s⁻¹ and the kcat/Km [7] was 938000 M⁻¹ s⁻¹.
